# From the DeepSol protein solubility set
# Assay: soluble on expression in E. coli; label from the status in PepcDB or PDB records
row,Sequence,soluble on expression in E. coli
1,GPLGSPPSKEILTLKQVQEFLKDGDDVVILGVFQGVGDPGYLQYQDAANTLREDYKFHHTFSTEIAKFLKVSLGKLVLMQPEKFQSKYEPRMHVMDVQGSTEASAIKDYVVKHALPLVGHRKTSNDAKRYSKRPLVVVYYSVDFSFDYRTATQFWRNKVLEVAKDFPEYTFAIADEEDYATEVKDLGLSESGGDVNAAILDESGKKFAMEPEEFDSDALREFVMAFKKGKLKPVIKSQPVPKNNKGAAAS,soluble
2,MKKLLLSILFVGGGLISLSNNFTGPRYRVDISTGFIDDRRFALTSGYKFFSGSVSVLPEWELKFNKKFDISFGPKVSLNFENFIGSMDATTINPSIILGGEIDFNYKVIEDVKIYAGMEVGTGIGFQAFVSSSHNHFQGPELKTESKISLGVKVKDKFNLAFYTGDIKGVIGVEAGYTF,not soluble
3,MGHHHHHHSHMGKGPNLLALQLSDSTLADIIARLQAGQKLSGSSPFSSAFNSLSLDKESGLLMFKGDKKPRVWVVPTQLRRDLIFSVHDIPLGAHQRPEETYKKLRLLGWWPGMQEHVKDYCRSCLFCIPRNLIGSELKVIESPASVLRGQGVCNRSGTR,not soluble
4,MPAKSSSRTSATSSRRTILRLKVIPWERIISPFPSERGGSMSSLGIDIGGANLKVASKDGWEIIYFPMWREAERLEGKLREIAEKYSTAKAGVVMTAELADFFKSRAEGVEFIAKACKKAFEDVRFLDVEGNLKSDIDNPENFAASNWVASCRFLLEEAYRNFLFVDMGSTTTDIIPVTSKIEAAKTDFERLKRGELIYFGVLRTPVFYVLKEFEGAPLCPEFFAITADVFVTTGDIKEEDYSCDTPDGKGRSREECMRRLARTVCSDLEELGEEKVKELALEAKWAMIDRLSEVIEHKSKIYGLKTVFACGIGEFLIAEACEEAGAECRLISELYGDYSKLFPAYAMLKLVEQHLEHHHHHH,not soluble
5,MAYAYLFKYIIIGDTGVGKSCLLLQFTDKRFQPVHDLTIGVEFGARMITIDGKQIKLQIWDTAGQESFRSITRSYYRGAAGALLVYDITRRDTFNHLTTWLEDARQHSNSNMVIMLIGNKSDLESRREVKKEEGEAFAREHGLIFMETSAKTASNVEEAFINTAKEIYEKIQEGVFDINNEANGIKIGPQHAATNASHGSNQGGQQAGGGCC,soluble
6,MGHHHHHHGGHMSLLTFVGLGLWDVKDISVKGLEAVREADEVYVEYYTSKLLSSIEEMEEFFGKRVVELERSDLEENSFRLIERAKSKSVVLLVPGDPMVATTHSAIKLEAERKGVKTRIIHGASISTAVCGLTGLHNYRFGKSATVSWHRSQTPVNVIKANRSIDAHTLLFLDLHPEPMTIGHAVENLIAEDAQMKDLYAVGIARAGSGEEVVKCDRLENLKKIDFGKPLHVMVVLAKTLHFMEFECLREFADAPAELERLVAEGGS,soluble
7,NSLFNQEVQIPLTESYCGPCPKNWICYKNNCYQFFDESKNWYESQASCMSQNASLLKVYSKEDQDLLKLVKSYHWMGLVHIPTNGSWQWEDGSILSPNLLTIIEMQKGDCALYASSFKGYIENCSTPNTYICMQRTV,soluble
8,MKLERVLPFARSLLQTAVKEGDYAVDATLGNGHDTCFLAEIVGDNGKVFGFDIQKEAIESSTTRLKEKELFERTVLVHDSHDTLLSILPEDAKGKVTGAIFNLGYLPGGDKHIVTKPNSTISAIEQLLEVMAPEGIIVLVIYHGHPEGQVERDAVLKFAEELDQKQAHVLRYGFINQQNNPPFIVAIEKR,not soluble
9,MDYEIENNHADSIRRGSIEVICGSMFSGKTEELLRRLRRAKIARQTVEIFKPTIDIRYDETDVVSHDKNAIASTPVDNSANILLLSSQVDVVGIDEAQFFDEGLVEVAQQLADQGVRVVIAGLDMDFRRQPFGPMPGLCAIADSVTKVHAVCVECGRLASYSFRRVQGDQQVMLGELNEYSPLCRTCYRKCSSPPQTEEIHSTILEHHHHHH,soluble
10,GPGSSISNLSMQTHAARMRTFMYWPSSVPVQPEQLASAGFYYVGRNDDVKCFCCDGGLRCWESGDDPWVEHAKWFPRCEFLIRMKGQEFVDEIQGRY,soluble
11,MEHFHGNRWDQLRAVEADILCPPPADPFQIFPSGWTRASELSEKGWRELLDRRRSQSPPPREPSPDVRRAIRRTPPPRVNRVAPIRLPERRPLRQLNANDARRPAQDAANRINQENMRAGNIDNGQPRRRALSPTQLPGVRAIPKDFNRFFRGLLTPGEFFAKSQTRYLGPFDEMPTEDTLPAADEYIILQRMGRLPDSGKSIFRQVGNLST,not soluble
12,QMPQPLAYAQALLAQFASLARAVNGAQLLGDFVRSLAELSGCELSQLYLLDATHKCLKMRAECLDGTLQPREAASLPVDYNGEQLLQFALCQNRVVCLGELSGSLHETSFLPTQSTPWQSLLCVPVVNHQQAVEGLLLCASRRHVDLQGFADSLGQFGSFALGQLNLLQRLHKPADEVRPAGITMPSVSGYG,not soluble
13,MNKISPLGSNWNEFEQQIFNEEEIRESNLRVALIKELITSRQQLGISQKQLETLSGVKQPMIARIEKGQTNPQLETLLKLLAPLGKTLSIVPLRVKNA,not soluble
14,MGSDKIHHHHHHMEMRFFVLGAGSWGTVFAQMLHENGEEVILWARRKEIVDLINVSHTSPYVEESKITVRATNDLEEIKKEDILVIAIPVQYIREHLLRLPVKPSMVLNLSKGIEIKTGKRVSEIVEEILGCPYAVLSGPSHAEEVAKKLPTAVTLAGENSKELQKRISTEYFRVYTCEDVVGVEIAGALKNVIAIAAGILDGFGGWDNAKAALETRGIYEIARFGMFFGADQKTFMGLAGIGDLMVTCNSRYSRNRRFGELIARGFNPLKLLESSNQVVEGAFTVKAVMKIAKENKIDMPISEEVYRVVYEGKPPLQSMRDLMRRSLKDEFWASVVDSSL,not soluble
15,MAHHHHHHMNKFENFYKVPISYKNRKNEIYKYDNLEYNKMKYGMPEYYRCPYYMHENRNLYNTESCYTPNINVGRNSFYGKTLDPNDKICEENDSVYNILEEDHKEESFKKIECMNKEDDRKKIYNKVEKNDDENIDNKKHNYCEKYEEVYPKDRSSIKIIYNDVDQQIDHNLYDDENEIVCDNEIKKRKKRDRKVFMGKYFFSDIINTIIYPCTNKSLQKYQYGSVENMDYSLYNDIQKGQKIQKVDKIKNKKAPQIIVKF,not soluble
16,MRKLNNHDVHKRYQDRLEEDVEFTINYELPLSCLWSTIKDFSSDFEEKTEAFFILFKELLRRGHLKLQRDGQIIGHTPEEWEQIFREVWPEYEIEPNPLPGYAPFDIGMWLTVEAPAYAVWIDPEDGSEYWAG,soluble
17,MLRRQMSFNGKSDMGILYLVPTPIGNLEDMTFRAIDTLKSVDAIAAEDTRQTKKLCHVYEIETPLVSYHEHNKESSGHKIIEWLKSGKNIALVSDAGLPTISDPGAEIVKDFTDIGGYVVPLPGANAALTALIASGIVPQPFFFYGFLNRQKKEKKKELEALKKRQETIIFYEAPHRLKETLSAMAEILGDREIAVTRELTKKYEEFIRGTISEVIGWANEDQIRGEFCLVVEGSNNEEVDEEEQWWETLTAKEHVEHYISKGATSKEAIKKAAVDRNVPKREVYDAYHIKQLEHHHHHH,not soluble
18,MEIKKGLEDVYVKETEITYIDGELGRLYYRGYSIYDLAEFSNFEEVSYLILYGKLPNREELNWFQEKLREERYLPDFIIKFLREVRKDAQPMDILRTAVSLLGIEDSKNDERTDIKGIKLISKFPTIVANYARLRKGLDIIEPDPKLSHSENFLYMLYGDRPNEIKSKAMDVTLILHIDHEMNASTFASLVVASTFSDLYSSIVAGISALKGPLHGGANYEALKMFKEIGSPEKVNDYILNRLSNKQRIMGFGHRVYKTYDPRARILKQYAKLLAEKEGGEIYTLYQIAEKVEEIGIKYLGPKGIYPNVDFFSSIVFYSLGFEPDFFPAVFASARVVGWVAHIMEYIKDNKIIRPKAYYKGEIGKKYIPIDSR,soluble
19,MSLILLNTITDQVSVSETQTKSPRLWMPERVLFTPAALGEDWGQQILARVQSLNLPIEELSQNRLKGLRGESERDTYNIAKRTLAVVTAPPSSFKLSPIPPSADWQFHIAEGCPAHCQYCYLAGSLSGPPVIRVFANLPQILENLANYEQQGKTTTFEVSCYTDPLGIEHLTGSLAECIRYFGTRTNAHLRWVSKFDAVDGLLDLPHNGNTRCRMSVNAAPISGKFEGGTASVASRLNALRRLALPQERGGGGYPVGLVIAPIMPIDDWQMHYSRLFDQINEALDFDCNFTFELISHRFTPGSKEVLQAWYPQSKLEMDEAKRSVKRNKFGGTKYVYEKDTMKALRSFFESEISRRFPNAETLYWTEGHHHHHH,soluble
20,MGHHHHHHSHVAQFPTPFGGSLDTWAITVEERAKHDQQFHSLKPISGFITGDQARNFFFQSGLPQPVLAQIWALADMNNDGRMDQVEFSIAMKLIKLKLQGYQLPSALPPVMKQQPVAISS,soluble
21,AHHHHHHGSIIAITGTPGVGKTTVARKLAEKLGCKYVNLRDFALEKGIGEVKGDELEVEVDELAYFVEKEFKGKNVVLDGHLSHLMPADLVIVLRAHPKTIAERLKERGYSKDKIGENVEAELVDVILIEALDEHENVIEVDTTGKTPEEVVNEILNLINSGIKRRVGIVDWTKVYEEIIPYLRLGGD,not soluble
22,LALQAKQYGDFDRYVLALSWQTGFCQSQHDRNRNERDECRLQTETTNKADFLTVHGLWPGLPKSVAARGVDERRWMRFGCATRPIPNLPEARASRMCSSPETGLSLETAAKLSEVMPGAGGRSCLERYEYAKHGACFGFDPDAYFGTMVRLNQEIKESEAGKFLADNYGKTVSRRDFDAAFAKSWGKENVKAVKLTCQGNPAYLTEIQISIKADAINAPLSANSFLPQPHPGNCGKTFVIDKAGY,soluble
23,MQCFNTIFRLFTDMDEDNEIGLPQKGINQIIKEVVPEMRIANESRDMINACCVEFVKHIAREAQRIASQDQRKTIYHEHVQKALQNLGFTPDYLEAADSVLDACKVEAEKKLRRKNSRLEKCGIPEEKLYEMQQELIQKARQQEIEQQLAHQQAQAAAVAAANAQMFGGPSEGSLAPTDDDYDN,soluble
24,MGHHHHHHSHVHMKDFFYFRNHFCITFELLGINLYELMKNNNFQGFSLSIVRRFTLSVLKCLQMLSVEKIIHCDLKPENIVLYQKGQASVKVIDFGSSCYEHQKVYTYIQSRFYRSPEVILGHPYDVAIDMWSLGCITAELYTGYPLFPGENEVEQLACIMEVLGLPPAGFIQTASRRQTFFDSKGFPKNITNNRG,soluble
25,MAQHHGHLGAVYDAAGPQEVAALYDRWAETYESEMARAGYRHPAIGVALLARHLPRGARPLLDAGAGTGLLGEWLEIVGYPEVEALDISAGMLEVARAKGIYARCHNLPLGAALPFRDGAFAGIISTGVFTTGHVGAEALPELLRICRPGGVIVLTVKESLWQGGFAVSLEAAVASGLEHHHHHH,not soluble
26,MLLNAVNQNQPTIAAEINYIKPNIQATFDLSTSKKSADTLTEQVDKRVVEITDARLLAKTATLKEDGFGLVANKYHMADYFDDAMVSTELYPQIIKHLMSLTNASKGVVFDHTIRSVEDKLHRAEKRSPIHTVHNDYVASSAQHRLHIELEKQGLKASDYHRYQFINTWIPLVDVVLDSPLAFADMRSVTSEQSHLLQVAYPDRVGEIEGFSYNPNNRWFYFSRMTSKEQLNFKVFDSDKSNAVNRTPHSAFLLPSVAENVQSRVSIELRTILLFNKLEHHHHHH,not soluble
